The text below walks through data of the supplement of paper PMC7877785.

± gives the uncertainty stated by the source.

A short description of the data set: self-splicing fitness, log relative to wild type (ln ratio); higher = more splicing; Tetrahymena group I intron in knt gene, E. coli kanamycin selection, DiMSum; sequences stand for … in CUCUCU…GGAGGGAAAAGUUAUCAGGCAUGCACCUGGUAGCUAGUCUUUAAACCAAUAGAUUGCAUCGGUUUAAAAGGCAAGACCGUCAAAUUGCGGGAAAGGGGUCAACAGCCGUUCAGUACCAAGUCUCAGGGGAAACUUUGAGAUGGCCUUGCAAAGGGUAUGGUAAUAAGCUGACGGACAUGGUCCUAACCACGCAGCCAAGUCCUAAGUCAACAGAUCUUCUGUUGAUAUGGAUGCAGUUCACAGACUAAAUGUCGGUCGGGGAAGAUGUAUUCUUCUCAUAAGAUAUAGUCGGACCUCUCCUUAAUGGGAGCUAGCGGAUGAAGUGAUGCAACACUGGAGCCGCUGGGAACUAAUUUGUAUGCGAAAGUAUAUUGAUUAGUUUUGGAGUACUCGUGGUCG
Summed up: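 Library with all eight P1ex-region intron nucleotides randomised, intron inside the knt kanamycin-resistance gene on pET-22b(+), in E. coli BL21(DE3). Cells grew overnight at 37°C or 30°C on LB agar with or without 25 μg/mL kanamycin (plus 100 μg/mL carbenicillin, 50 μM IPTG, 0.2% rhamnose), in six replicate transformations. Pooled colonies were amplicon-sequenced on Illumina HiSeq 2500. DiMSum fitness is the error-weighted combination of wild-type-normalised replicate fold changes, kanamycin versus none.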

GGACAGCAAUAUUACGUGUG: the “self-splicing fitness (ln)” value reads like this: (30 °C) -1.55 ± 0.05; (37 °C) -0.79 ± 0.066.

As for GGGAAGCAAUAUUACGCUAU, the “self-splicing fitness (ln)” value is -2.75 ± 0.19 (30 °C) and -0.951 ± 0.14 (37 °C).

Take AAGGAGCAAUAUUACGUGGC: the “self-splicing fitness (ln)” value runs as follows: (30 °C) -3.79 ± 0.19; (37 °C) -2.37 ± 0.2.

For ACCUAGCAAUAUUACGGCUC, the “self-splicing fitness (ln)” value runs as follows: (30 °C) -0.922 ± 0.1; (37 °C) -0.468 ± 0.14.

In the case of AUAAAGCAAUAUUACGCGGU, the “self-splicing fitness (ln)” value reads like this: (30 °C) -1.8 ± 0.12; (37 °C) -0.6 ± 0.11.

Consider UUGGAGCAAUAUUACGCAAA, for which the “self-splicing fitness (ln)” value was -2.95 ± 0.44 (30 °C) and -2.54 ± 0.41 (37 °C).

For the sequence ACCGAGCAAUAUUACGUAGG, the “self-splicing fitness (ln)” value runs as follows: (30 °C) -3.76 ± 0.2; (37 °C) -2.79 ± 0.24.

In the case of GGGUAGCAAUAUUACGGUCG, the “self-splicing fitness (ln)” value runs as follows: (30 °C) -0.207 ± 0.12; (37 °C) -0.642 ± 0.096.

For CUGGAGCAAUAUUACGAUGC, the “self-splicing fitness (ln)” value (37 °C) was -1.84 ± 0.4.

With CUAGAGCAAUAUUACGAACC, where the note is “30 °C”, the “self-splicing fitness (ln)” value was -1.8 ± 0.47.

On to UAUUAGCAAUAUUACGUAGC, for which the “self-splicing fitness (ln)” value runs as follows: (30 °C) -2.37 ± 0.22; (37 °C) -1.31 ± 0.27.

For UGGGAGCAAUAUUACGAAUU, the “self-splicing fitness (ln)” value (37 °C) was -2.63 ± 0.28.

For GUUGAGCAAUAUUACGGGCA, the “self-splicing fitness (ln)” value (30 °C) is -3.29 ± 0.23 and the “self-splicing fitness (ln)” value (37 °C) is -0.813 ± 0.16.

As for UAGUAGCAAUAUUACGGAGG, the “self-splicing fitness (ln)” value (37 °C) was -1.43 ± 0.44.

Regarding CCGGAGCAAUAUUACGAAAC, the “self-splicing fitness (ln)” value is -1.5 ± 0.23 (30 °C) and -0.933 ± 0.2 (37 °C).

As for GAAGAGCAAUAUUACGACGU, the “self-splicing fitness (ln)” value reads like this: (30 °C) -0.922 ± 0.16; (37 °C) -0.536 ± 0.18.

Take AUGAAGCAAUAUUACGUUGG: the “self-splicing fitness (ln)” value (30 °C) is -2.72 ± 0.16 and the “self-splicing fitness (ln)” value (37 °C) is -1.58 ± 0.2.

Consider AGACAGCAAUAUUACGGCUA, for which the “self-splicing fitness (ln)” value runs as follows: (30 °C) -0.252 ± 0.08; (37 °C) -0.286 ± 0.083.

Turning to AUGCAGCAAUAUUACGCGGA, the “self-splicing fitness (ln)” value runs as follows: (30 °C) -2.88 ± 0.11; (37 °C) -0.559 ± 0.069.

For UACUAGCAAUAUUACGCACA, the “self-splicing fitness (ln)” value by setting is: (30 °C) -0.646 ± 0.079; (37 °C) 0.021 ± 0.092.

As for UAUAAGCAAUAUUACGAGGG, where the note is “30 °C”, the “self-splicing fitness (ln)” value is -3.42 ± 0.3.

On to CGUCAGCAAUAUUACGUUGC, for which the “self-splicing fitness (ln)” value by setting is: (30 °C) -3.95 ± 0.26; (37 °C) -2.89 ± 0.18.

UGGAAGCAAUAUUACGACAC: the “self-splicing fitness (ln)” value was -2.87 ± 0.17 (30 °C) and -3.13 ± 0.25 (37 °C).

In the case of CCUGAGCAAUAUUACGUCAU, the “self-splicing fitness (ln)” value reads like this: (30 °C) -3.5 ± 0.15; (37 °C) -2.68 ± 0.18.

As for AGAUAGCAAUAUUACGUCCG, the “self-splicing fitness (ln)” value is, setting by setting: (30 °C) 0.235 ± 0.1; (37 °C) -0.122 ± 0.11.

On to CAGUAGCAAUAUUACGAAGG, for which the “self-splicing fitness (ln)” value (30 °C) was -1.25 ± 0.12 and the “self-splicing fitness (ln)” value (37 °C) was -1.8 ± 0.14.

Regarding ACCCAGCAAUAUUACGUAUU, the “self-splicing fitness (ln)” value was -1.93 ± 0.069 (30 °C) and -0.714 ± 0.077 (37 °C).

Turning to CUCAAGCAAUAUUACGUGUG, the “self-splicing fitness (ln)” value is -2.73 ± 0.074 (30 °C) and -1.42 ± 0.072 (37 °C).

In the case of CUCUAGCAAUAUUACGACUG, the “self-splicing fitness (ln)” value runs as follows: (30 °C) -1.68 ± 0.15; (37 °C) -0.621 ± 0.18.

On to CAGUAGCAAUAUUACGGGUC, for which the “self-splicing fitness (ln)” value is, setting by setting: (30 °C) -3.88 ± 0.37; (37 °C) -1.32 ± 0.24.

For the sequence GACAAGCAAUAUUACGGAGG, the “self-splicing fitness (ln)” value reads like this: (30 °C) -4.57 ± 0.31; (37 °C) -2.08 ± 0.19.

On to UUUCAGCAAUAUUACGUCGG, for which the “self-splicing fitness (ln)” value was -1.51 ± 0.1 (30 °C) and -1.17 ± 0.14 (37 °C).

GCUGAGCAAUAUUACGAAUG: for the setting “37 °C”, the “self-splicing fitness (ln)” value is -1.4 ± 0.37.

On to UGGUAGCAAUAUUACGUUUG, for which the “self-splicing fitness (ln)” value is, setting by setting: (30 °C) -1.26 ± 0.07; (37 °C) -0.669 ± 0.098.

With UAUCAGCAAUAUUACGAAUC, the “self-splicing fitness (ln)” value runs as follows: (30 °C) -3.49 ± 0.26; (37 °C) -0.458 ± 0.14.
